Measurements from the Human Domainome abundance scans (Beltran et al. 2025).
± gives the uncertainty stated by the source.

B1: Zinc finger homeobox protein 3, residues 2643 to 2698; numbered along this chain, Q15911 (parent)
chain: RLRTTITPEQLEILYQKYLLDSNPTRKMLDHIAHEVGLKKRVVQVWFQNTRARERK

Variants of: B1
Assay: abundance fitness (aPCA) (normalised: wild type 0, dead -1); higher = more abundant; growth selection in yeast, the domain comes from the species named
Conditions: Homo sapiens
In the case of RLRGTITPEQLEILYQKYLLDSNPTRKMLDHIAHEVGLKKRVVQVWFQNTRARERK [T4G], the abundance fitness is reported as -0.002 ± 0.08. Work on RLRTTITPEQLEILYQKYLLRSNPTRKMLDHIAHEVGLKKRVVQVWFQNTRARERK [D21R] yielded an abundance fitness of -0.803 ± 0.1. With RLRTTITPEQLEILYQKYLLDSQPTRKMLDHIAHEVGLKKRVVQVWFQNTRARERK [N23Q] the abundance fitness was 0.066 ± 0.14. Variant RLRTTITPEQLEILYQKYLLDSNPTPKMLDHIAHEVGLKKRVVQVWFQNTRARERK [R26P] has an abundance fitness of 0.35 ± 0.089. In the case of RLRTTITPEQLEILYQKYLTDSNPTRKMLDHIAHEVGLKKRVVQVWFQNTRARERK [L20T], the abundance fitness is reported as -0.057 ± 0.11. For RLRTTITPEQLEILYQKYLADSNPTRKMLDHIAHEVGLKKRVVQVWFQNTRARERK [L20A], the abundance fitness was -0.211 ± 0.096. For RLRTTITPEQLEILYQKYLLDSNPTRKMLDHLAHEVGLKKRVVQVWFQNTRARERK [I32L], the abundance fitness was -0.123 ± 0.08. For RLRTTITPEQLEILYQKYLLDSNPTRKMLDHIAHEVGLKKRFVQVWFQNTRARERK [V42F], the abundance fitness was -0.47 ± 0.17. Variant RLRTTITPEQLEILYQKYLLDSNPTRKMLDHIAHEVGLKKRQVQVWFQNTRARERK [V42Q] has an abundance fitness of -0.372 ± 0.14. RLRTTITPEQLEILYQKYLLDSNPTRKMLDHIAHEVGLKKRCVQVWFQNTRARERK [V42C] gave an abundance fitness of -0.021 ± 0.12. RLRTTITPEQLEILYQKYLLDSNPTRKMLDHIAHEVGGKKRVVQVWFQNTRARERK [L38G] gave an abundance fitness of -0.972 ± 0.092. For RLRTTITPEQLEILYQKYLLDSNPTRKMLDHIAHFVGLKKRVVQVWFQNTRARERK [E35F], the abundance fitness was -0.557 ± 0.15. Work on RLRTTITPEQLEILYIKYLLDSNPTRKMLDHIAHEVGLKKRVVQVWFQNTRARERK [Q16I] yielded an abundance fitness of -0.073 ± 0.26. Variant RLRTTITPEQLEILYQKYLLDSNPTRKMLDHIAHEVGLKKRVVSVWFQNTRARERK [Q44S] has an abundance fitness of -0.044 ± 0.097. Work on RLRTTITPEQLEILYQKYLLDSNPTRKMLDHIAHEVGLKKWVVQVWFQNTRARERK [R41W] yielded an abundance fitness of 0.055 ± 0.12. In the case of RLRTTITPEQLEILYQKYLLDSNPTRKMLDHIAHEVGLKKEVVQVWFQNTRARERK [R41E], the abundance fitness is reported as 0.475 ± 0.12. RLRTTITPEQLEILYQKYLLDSNPTRKMLDHIAHEVGLKKYVVQVWFQNTRARERK [R41Y] showed an abundance fitness of -0.129 ± 0.24. RLRTTITPEQPEILYQKYLLDSNPTRKMLDHIAHEVGLKKRVVQVWFQNTRARERK [L11P] showed an abundance fitness of -0.494 ± 0.14. RLRTTITPEQCEILYQKYLLDSNPTRKMLDHIAHEVGLKKRVVQVWFQNTRARERK [L11C] gave an abundance fitness of -0.648 ± 0.14. RLRTTITPEQLEINYQKYLLDSNPTRKMLDHIAHEVGLKKRVVQVWFQNTRARERK [L14N] showed an abundance fitness of -1.14 ± 0.24. In the case of RLRTTITPEQLEIAYQKYLLDSNPTRKMLDHIAHEVGLKKRVVQVWFQNTRARERK [L14A], the abundance fitness is reported as -0.908 ± 0.13. Variant RLRTTITPEQLEIMYQKYLLDSNPTRKMLDHIAHEVGLKKRVVQVWFQNTRARERK [L14M] has an abundance fitness of -0.17 ± 0.11. For RLRTTITPEQLEIVYQKYLLDSNPTRKMLDHIAHEVGLKKRVVQVWFQNTRARERK [L14V], the abundance fitness was -0.926 ± 0.12. RLRTTITAEQLEILYQKYLLDSNPTRKMLDHIAHEVGLKKRVVQVWFQNTRARERK [P8A] showed an abundance fitness of 0.388 ± 0.095. For RLRTTITTEQLEILYQKYLLDSNPTRKMLDHIAHEVGLKKRVVQVWFQNTRARERK [P8T], the abundance fitness was -0.116 ± 0.16. Work on RLRTTITPEQLEILYQKYLLDSNPTRKMLDHIAHEVGLKKRVVQVDFQNTRARERK [W46D] yielded an abundance fitness of -0.815 ± 0.2. Variant RLRTTITPEQLEILYQKYLLDSNSTRKMLDHIAHEVGLKKRVVQVWFQNTRARERK [P24S] has an abundance fitness of -0.764 ± 0.11. For RLRTTITPEQLEILYQKYLLDSNCTRKMLDHIAHEVGLKKRVVQVWFQNTRARERK [P24C], the abundance fitness was -0.96 ± 0.17. Variant RLRTTITPEQLEILYQKYLLDSNATRKMLDHIAHEVGLKKRVVQVWFQNTRARERK [P24A] has an abundance fitness of -0.82 ± 0.096. Variant RLRTTITPEQLEILYQKYLLDSNPWRKMLDHIAHEVGLKKRVVQVWFQNTRARERK [T25W] has an abundance fitness of -0.951 ± 0.13. In the case of RLRTTITPEQLEILYQKYLLDSNPSRKMLDHIAHEVGLKKRVVQVWFQNTRARERK [T25S], the abundance fitness is reported as -0.267 ± 0.089. RLRTTITPEQLEILYQKYLLDSNPHRKMLDHIAHEVGLKKRVVQVWFQNTRARERK [T25H] gave an abundance fitness of -0.448 ± 0.19. Variant RLRTTITPEQLEILYQKYLLDSNPTRKMLDHIAHEYGLKKRVVQVWFQNTRARERK [V36Y] has an abundance fitness of -0.896 ± 0.19. With RLRTTITPEQLEILYQKYLLDSNPTRKMLDHIAHEIGLKKRVVQVWFQNTRARERK [V36I] the abundance fitness was 0.191 ± 0.12. In the case of RLRTTITPEQLEILYQKYLLDSNPTRKMLDHIAHEWGLKKRVVQVWFQNTRARERK [V36W], the abundance fitness is reported as -0.495 ± 0.14. Work on RLRTTITPEQLEILYQKYLLDSNPTRKMLMHIAHEVGLKKRVVQVWFQNTRARERK [D30M] yielded an abundance fitness of -0.314 ± 0.13. Work on RLRTTIRPEQLEILYQKYLLDSNPTRKMLDHIAHEVGLKKRVVQVWFQNTRARERK [T7R] yielded an abundance fitness of -0.443 ± 0.082. RLRTTILPEQLEILYQKYLLDSNPTRKMLDHIAHEVGLKKRVVQVWFQNTRARERK [T7L] gave an abundance fitness of -0.212 ± 0.083. With RLRTTITPEQLEILYQKYLLDSNPTRKMLDHISHEVGLKKRVVQVWFQNTRARERK [A33S] the abundance fitness was -0.06 ± 0.074. With RLRTTITPEQLEILYQKYLLDSNPTRKMLDHIDHEVGLKKRVVQVWFQNTRARERK [A33D] the abundance fitness was -0.866 ± 0.11. In the case of RLRTTITPEQLEILYQKYLLDSNPTRKMLDHIPHEVGLKKRVVQVWFQNTRARERK [A33P], the abundance fitness is reported as -0.746 ± 0.085. For RLRTTITPEQLEILYQKYLLDSNPTRKMLDHINHEVGLKKRVVQVWFQNTRARERK [A33N], the abundance fitness was -0.906 ± 0.11. RLRTTITPEQLEILYQKYLLDSNPTRKMLDHIAHEVGLKKRVVQVWFQNTRARERY [K56Y] gave an abundance fitness of -0.54 ± 0.19. Variant RLRTTITPEQLEILYQKYLLDSNPTRKMLDHIAHEVGLKKRVVQVWFQNTRARERE [K56E] has an abundance fitness of 0.466 ± 0.2. Work on RLRTTITPEQLEILYQKYLLDSNPTRKMLDHIAWEVGLKKRVVQVWFQNTRARERK [H34W] yielded an abundance fitness of -0.095 ± 0.1. RLRTTITPEQLEILYQKYLLDSNPTRKMLDHIAGEVGLKKRVVQVWFQNTRARERK [H34G] showed an abundance fitness of 0.062 ± 0.093. In the case of RLRTTITPEQLEILYQKYLLDSNPTRKMLDHIACEVGLKKRVVQVWFQNTRARERK [H34C], the abundance fitness is reported as -0.075 ± 0.099.
